Paper PMC2807175

B1: OsSUT1 (Oryza sativa Japonica Group) (protein)
chain: MARGSGAGGGGGGGGGGLELSVGVGGGGGARGGGGGEAAAAVETAAPISLGRLILSGMVAGGVQYGWALQLSLLTPYVQTLGLSHALTSFMWLCGPIAGMVVQPCVGLYSDRCTSKWGRRRPYILTGCVLICLAVVVIGFSADIGYAMGDTKEDCSVYHGSRWHAAIVYVLGFWLLDFSNNTVQGPARALMADLSGRHGPGTANSIFCSWMAMGNILGYSSGSTNNWHKWFPFLKTRACCEACANLKGAFLVAVIFLSLCLVITLIFAKEVPFKGNAALPTKSNEPAEPEGTGPLAVLKGFRNLPTGMPSVLIVTGLTWLSWFPFILYDTDWMGREIYHGDPKGTDPQIEAFNQGVRAGAFGLLLNSIVLGFSSFLIEPMCRKVGPRVVWVTSNFLVCIAMAATALISFWSLKDFHGTVQKAITADKSIKAVCLVLFAFLGVPLAVLYSVPFAVTAQLAATRGGGQGLCTGVLNISIVIPQVVIALGAGPWDELFGKGNIPAFGLASGFALIGGVAGIFLLPKISKRQFRSVSMGGGH
B2: OsSUT5 (Oryza sativa Japonica Group) (protein)
chain: MEEGRRGDREGKSAAGWTALSTTKTTLEEKRRLQANGSVGGDAGTSGFRRIVRLFFACMVAGGIQYGWALQLSLLSPYSQTLGISHSYVSLTWICGPIAGFVVQPIVGYYSDRCTMKMGRRRPFILVGCLIICISVMIIGFSADIGRHLGDTKEHCSTYTGPRWSAAMVYIVGFWFLDFANNTVQGPARAMMADLSAGHHGPNVGQSIFSLWMAIGSVLGYLSGANGKWHEWFPWLKTAACCDACANLKGAFFTAVLLIVVSMTVTMYLADEMPLDKQDVDTSGGGGCAVFVDLFKSLRNLPPAMFKVLAVTAVTWLSWFPFIQYNTDWMGREIYHGEPQGTAAKADVYDAGVREGAMGLLFCSVALGVTSFVIPKLCRRLTSKVVWSISNFLVFALMAVMVAVGMVSMRGYRPSLAAGLTGPDPTLKAVALVVFALIGIPQAVLFSVPWAVASEVTAEEGGGQGLAIGVLNIAIVVPQLVIALTAGPIDGAFNKGNTPAFGIGGAFAFICGVLALIWLPKTRGVSNAAVVAGGH

Substrate: OC[C@H]1O[C@@](CO)(O[C@H]2O[C@H](CO)[C@@H](O)[C@H](O)[C@H]2O)[C@@H](O)[C@@H]1O
Test: cells, lysate or membranes
Conditions: pH 5.6, Na Ringer, membrane potential -117 mV, H+ symport

Row | Protein | K0.5
1 | B1 | 7.50 mM
2 | B2 | 2.32 mM
